Source: article PMC8682754 (Nucleic Acids Research, 2021)
Substitutions are numbered along the chain they refer to. Where two headings read alike, the source gives them in different places. One block for each molecule: values may come before it.

Assays:
[1] = target: SegA (Sulfolobus solfataricus)
[2] = target: SegB (Sulfolobus solfataricus); test: SEC
[3] = target: SegA (Sulfolobus solfataricus); test: SEC
[4] = target: T1, SegA (Saccharolobus solfataricus, UniProt Q981B3); test: X-ray crystal structure; format: binding; conditions: nucleotide pocket
T1 sequence (Q981B3 1-220): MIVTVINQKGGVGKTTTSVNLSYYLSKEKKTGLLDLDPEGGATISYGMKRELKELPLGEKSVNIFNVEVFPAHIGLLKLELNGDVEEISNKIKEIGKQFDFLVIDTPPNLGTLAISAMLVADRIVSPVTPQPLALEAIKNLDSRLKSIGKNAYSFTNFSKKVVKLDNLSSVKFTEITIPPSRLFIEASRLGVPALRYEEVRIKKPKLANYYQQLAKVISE

[5] = target: T2, SegA (Sulfolobus solfataricus, UniProt Q981B3 1-220); test: fluorescence polarization
T2 sequence: T1 sequence (Q981B3 1-220)

[6] = target: T2, SegA; test: fluorescence polarization; remark: listed apart in the source
[7] = target: T2, SegA; test: fluorescence polarization; remark: listed apart in the source
[8] = target: T3, SegA-K14Q (Sulfolobus solfataricus, UniProt Q981B3 1-220, K14Q); test: fluorescence polarization
T3 sequence: T1 sequence (Q981B3 1-220) with K14Q

[9] = target: T4, SegA-G10V (Sulfolobus solfataricus, UniProt Q981B3 1-220, G10V); test: fluorescence polarization
T4 sequence: T1 sequence (Q981B3 1-220) with G10V

[10] = target: T5, SegBΔ33 (Sulfolobus solfataricus, UniProt Q981B2 34-109, del1-33); test: fluorescence polarization
T5 sequence: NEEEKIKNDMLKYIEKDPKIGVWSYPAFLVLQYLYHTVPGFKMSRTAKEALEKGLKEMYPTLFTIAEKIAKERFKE

[11] = target: T6, SegB (Sulfolobus solfataricus, UniProt Q981B2 1-109); test: fluorescence polarization
T6 sequence: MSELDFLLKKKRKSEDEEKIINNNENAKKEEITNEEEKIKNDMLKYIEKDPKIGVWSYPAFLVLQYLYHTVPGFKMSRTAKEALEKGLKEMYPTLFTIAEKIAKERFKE

[12] = target: T7, SegA-Q131A (Sulfolobus solfataricus, UniProt Q981B3 1-220, Q131A); test: fluorescence polarization
T7 sequence: T1 sequence (Q981B3 1-220) with Q131A

[13] = target: T8, SegA-Q131A/F158A (Sulfolobus solfataricus, UniProt Q981B3 1-220, Q131A;F158A); test: fluorescence polarization
T8 sequence: T1 sequence (Q981B3 1-220) with Q131A, F158A

[14] = target: T5, SegBΔ33; test: crystal structure

- increase of SegA ATPase activity upon addition of both SegB and S1 DNA [1]: 1000 fold
- stoichiometry N [2]: 2
Molecule: SegB (natural protein)

- stoichiometry N [3]: 2
Molecule: SegA (enzyme)

Molecule: Nc1ncnc2c1ncn2[C@@H]1O[C@H](COP(=O)(O)OP(=O)(O)NP(=O)(O)O)[C@@H](O)[C@H]1O [AMPPNP, adenosine 5′-(β,γ-imido)triphosphate]
- X-ray crystal structure [4]: We observed AMPPNP inside the nucleotide binding pocket

B1: 24-bp nsDNA (dsDNA)
DNA 1: AGGGTGTTCCACGTGAAACAGGGA
DNA 2: TCCCTGTTTCACGTGGAACACCCT
- Kd [5]: 710 nM
- Kd [6]: 450 nM
- Kd [7]: 240 nM

B2: 23-bp S1 DNA (dsDNA)
DNA 1: TACGTAGAAGAGTCTAGACTGAC
DNA 2: TCAGTCTAGACTCTTCTACGTAG
- binding result [8]: binds
- binding result [9]: binds
- Kd [10]: 280 nM
- Kd [11]: 180 nM
- binding result [12]: no binding
- binding result [13]: no binding

B3: 21-bp S1 DNA (dsDNA)
DNA 1: ACGTAGAAGAGTCTAGACTGA
DNA 2: CAGTCTAGACTCTTCTACGTA
- binding result [14]: binds
